In patent US20160264684A1, “GLYCAN-INTERACTING COMPOUNDS AND METHODS OF USE” (SIAMAB THERAPEUTICS, INC., priority 2013, published 2016):

Key:
[1] = E3-STn allograft model, complete blood count (CBC); type: in vivo, mouse; design: Red blood cells / White blood cells: unit not given here; conditions: CBC at end of study, antibody-treated mice
Method: At the end of the study, a complete blood count (CBC) was obtained for 5 mice treated with antibody as well as 3 mice treated with vehicle control. Blood was collected from all mice via terminal cardiac puncture and processed for plasma. Blood was placed in EDTA microtainer tubes (BD & Co., Franklin Lakes, N.J.) then centrifuged. Plasma layers were then removed and snap frozen in cryo vials (Thermo-Fisher Scientific, Rochester, N.Y.) and stored at −80° C. until analysis. Analysis was carried out to look for levels of a variety of factors.

E3-STn cells = experiment: E3-STn transfected murine breast tumor allograft model, tumor volume; type: in vivo, mouse; conditions: 7G9-1A8 25 mg/kg ip twice weekly 3 weeks, Paclitaxel daily 5 days
Method: 3 test articles were evaluated during the study.
Standard deviation values are listed in parenthesis.

[2] = mouse, in vivo
Method: 50 female Balb/cmice were inoculated with E3-STn cells to cause STn-expressing tumor formation when they were 5 weeks old. Mice were housed in individually ventilated microisolator cages, and maintained under pathogen-free conditions with irradiated feed and autoclaved water. […] Beginning on the first day of the study, body weight and tumor volumes were recorded twice weekly. 33 mice with mean tumor volume between 100 and 150 mm^3 were selected for randomization.
Antibodies and vehicle control were administered by intraperitoneal injection, twice weekly for 7 weeks.
The average weight of mice in each treatment group was also determined on days 1, 5, 8, 12, 15, 19, 22, 26, 29, 33, 36, 40, 43, 47 and 50 following the first administration of each test article (see Table 19). The percent gain or loss over initial weight values is listed in parentheses.

[3] = Pathological evaluation of organs (H&E); type: in vivo, mouse
Method: At the end of the study described in Example 22, three mice from the vehicle control group and five mice that received 7G9-1A8 were chosen at random for post-study pathology assessment. Brain, colon, intestine, heart, kidney, liver, lung, mandibular salivary gland, pancreas, spleen, stomach, adrenal gland and thyroid gland organs were collected from each mouse. The organs were fixed in formalin (VWR; Radnor, Pa.) for about 48 hours, transferred to 70% ethanol (Sigma-Aldrich; St. Louis, Mo.), and then processed for standard H&E staining.
The H&E stained tissue slides were examined for pathology review. Liver sections from each animal had multifocal inflammation with or without concomitant hepatocellular necrosis. The histo-pathological changes were minimal to mild in severity. There was no appreciable difference in the morphology of lesions among vehicle control group mice and mice that received 7G9-1A8.

B1: 7G9-1A8: 7G9-1A8 IgG2b κ antibody; heavy chain variable domain SEQ ID NO 12, light chain SEQ ID NO 9 (antibody, V domains shown)
VH: QVQLKESGPGLVAPSQNLSITCTVSGFSLTSYGVNWVRQPPGKGLEWLGVIWGDGSTNYHSALISRLIISKENSKSQVFLKLNSLQTNDTATYYCTKGFVYWGQGTLVTVSA
VL: QIVLTQSPAIMSASPGEKVTMTCSASSSVSYMHWYQQKSGTSPKRWIFDTSKLASGVPARFSGSGSGTSYSLTISSMEAEDAATYYCQQWSSNLLTFGAGTKLELK
[1]
  % Lymphocytes: 44.4%
  % Monocytes: 4.6%
  % Neutrophils (Segmented): 51.0%
  Hematocrit: 46.9%
  Hemoglobin: 16.0 g/dL
  Lymphocytes: 5.6 10^9/L
  Mean Corpuscular Hemoglobin: 16.2 pg
  Mean Corpuscular Hemoglobin Concentration: 34.2 g/dL
  Mean Corpuscular Volume: 47.4 fL
  Mean platelet volume: 7.4 fL
  Monocytes: 0.7 10^9/L
  Neutrophils: 7.6 10^9/L
  Platelet Cell Distribution Width: 32.2%
  Platelet count: 712.2 10^3
  Red Cell Distribution Width: 19.0%
  Red blood cells: 9.9
[1]; blood by terminal cardiac puncture
  White blood cells: 13.9
E3-STn cells; day 1 of treatment
  Average Tumor Volume: 112.4 mm^3
E3-STn cells; day 4 of treatment
  Average Tumor Volume: 148.7 mm^3
E3-STn cells; day 6 of treatment
  Average Tumor Volume: 161.9 mm^3
E3-STn cells; day 8 of treatment
  Average Tumor Volume: 152.8 mm^3
E3-STn cells; day 11 of treatment
  Average Tumor Volume: 136.3 mm^3
E3-STn cells; day 13 of treatment
  Average Tumor Volume: 118.4 mm^3
E3-STn cells; day 15 of treatment
  Average Tumor Volume: 105.1 mm^3
E3-STn cells; day 18 of treatment
  Average Tumor Volume: 99.5 mm^3
E3-STn cells; day 20 of treatment
  Average Tumor Volume: 91.7 mm^3
E3-STn cells; day 22
  Average Tumor Volume: 105.2 mm^3
E3-STn cells; day 26
  Average Tumor Volume: 102.8 mm^3
E3-STn cells; day 27
  Average Tumor Volume: 107.4 mm^3
E3-STn cells; day 29
  Average Tumor Volume: 147.1 mm^3
E3-STn cells; day 32
  Average Tumor Volume: 160.6 mm^3
E3-STn cells; day 34
  Average Tumor Volume: 164.7 mm^3
E3-STn cells; day 36
  Average Tumor Volume: 212.1 mm^3
E3-STn cells; day 39
  Average Tumor Volume: 206.6 mm^3
E3-STn cells; day 41
  Average Tumor Volume: 235.3 mm^3
[2]
  weight gain over the course of treatment as compared to vehicle control: higher percent gain in weight
[3]; 5 treated, 3 vehicle mice
  liver histo-pathology vs vehicle control group: no significant difference between the groups
[3]; seen in two vehicle control mice
  neutrophil aggregation in the muscularis mucosa of the stomach: not observed
